The text below walks through data of patent US20250074984A1.

As usually defined, the Kd is a measure of binding affinity in units of concentration. A low value points to a tighter complex.

Experiment [1] concerns the target FcγRIIβ (UniProt P31994). As to the kind of experiment: ratio of the chip-kinetics KDs on Hu FcgRIIB and Hu FcgRIIA_R167.
Experiment [2] concerns the target human FcγRIIα_R167 (human) (UniProt P12318). The experiment in a line: chip kinetics; antibody captured on protein A/G, receptor injected as analyte.
The target of experiment [3] is FcγRIIβ (UniProt P31994). The experiment is described as above.
Sequence of FcγRIIβ (P31994 46-217): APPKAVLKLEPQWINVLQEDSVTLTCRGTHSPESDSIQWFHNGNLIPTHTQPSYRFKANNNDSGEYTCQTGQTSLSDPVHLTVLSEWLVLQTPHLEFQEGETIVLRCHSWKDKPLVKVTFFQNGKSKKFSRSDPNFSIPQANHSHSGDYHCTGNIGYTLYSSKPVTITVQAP
In experiment [4] the target is FcγRIIβ (UniProt P31994). The experiment in a line: ratio of the chip-kinetics KDs on Hu FcgRIIA_R167 and Hu FcgRIIB.
Experiment [5] concerns the target human FcγRIIα_H167 (human) (UniProt P12318). As to the kind of experiment: chip kinetics; antibody captured on protein A/G, receptor injected as analyte.

Sequence of human FcγRIIα_R167 (human) (P12318 36-218 H167R): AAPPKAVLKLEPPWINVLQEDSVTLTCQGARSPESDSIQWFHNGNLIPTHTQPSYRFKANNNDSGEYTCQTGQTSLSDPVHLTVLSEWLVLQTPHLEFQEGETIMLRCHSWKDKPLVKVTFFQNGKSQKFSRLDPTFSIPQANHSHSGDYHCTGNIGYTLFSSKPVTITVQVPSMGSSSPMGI
Sequence of human FcγRIIα_H167 (human) (P12318 36-218): as the sequence (P12318 36-218 H167R) above, with R132H counted along it

In the case of IgG1 P238D (antibody), the Ratio iib/iia (KD human iib/KD human iia R) in experiment [1] turned out to be 0.32. Besides, the Fold = KD(IgG WT)/KD(variants) in experiment [2] is < 0.3 fold. In addition, in experiment [3], the Fold = KD(IgG WT)/KD(variants) amounted to 3.18 fold and the Kd is 1.6 µM. The Ratio iia/iib (KD human iia R/KD human iib) in experiment [4] amounted to 3.12.
IgG1 WT (antibody): the Kd in experiment [2] was 1.55 µM; in experiment [5] it was 1 µM.
